Literature values in article PMC7339208.

How the values were obtained:
IL-2 (Homo sapiens) = IL-2 (Homo sapiens) (UniProt P60568)
IL-15 (Homo sapiens) = IL-15 (Homo sapiens) (UniProt P40933)
Sequence of UniProt P40933 (P40933 49-162): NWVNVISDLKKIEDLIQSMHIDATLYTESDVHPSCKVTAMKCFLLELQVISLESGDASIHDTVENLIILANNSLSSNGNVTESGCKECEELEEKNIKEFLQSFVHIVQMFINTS

Sequence of UniProt P60568 (P60568 21-153): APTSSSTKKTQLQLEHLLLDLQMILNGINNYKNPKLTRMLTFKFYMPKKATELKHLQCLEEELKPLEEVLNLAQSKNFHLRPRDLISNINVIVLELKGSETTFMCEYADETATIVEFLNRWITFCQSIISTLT

For IL-2Rα (from UniProt P01589), the Kd (IL-2 (Homo sapiens)) is listed as 10 nM.

For IL-15Rα (from UniProt Q13261), the Kd (IL-15 (Homo sapiens)) is given as 0.1 nM.
